Data published in patent publication US20200384118A1, “IMMUNOTOXIN CONJUGATES FOR USE IN THERAPY” (FRIEDRICH-ALEXANDER-UNIVERSITAT ERLANGEN-NURNBERG, priority 2017, published 2020).

B1: PV: CD22-targeting IgG-based ADC, antibody conjugated with MMAE (conjugate, chains of the INN, looked up)
VH: EVQLVESGGGLVQPGGSLRLSCAASGYEFSRSWMNWVRQAPGKGLEWVGRIYPGDGDTNYSGKFKGRFTISADTSKNTAYLQMNSLRAEDTAVYYCARDGSSWDWYFDVWGQGTLVTVSS
VL: DIQMTQSPSSLSASVGDRVTITCRSSQSIVHSVGNTFLEWYQQKPGKAPKLLIYKVSNRFSGVPSRFSGSGSGTDFTLTISSLQPEDFATYYCFQGSQFPYTFGQGTKVEIK
modifications: vedotin (MMAE) payload
B2: Moxe: reference immunotoxin compared with LMIT-2 in FIG. 2B; not further defined in the text (antibody, chains of the INN, looked up, V domains shown)
VH: EVQLVESGGGLVKPGGSLKLSCAASGFAFSIYDMSWVRQTPEKCLEWVAYISSGGGTTYYPDTVKGRFTISRDNAKNTLYLQMSSLKSEDTAMYYCARHSGYGTHWGVLFAYWGQGTLVTVSA
VL: DIQMTQTTSSLSASLGDRVTISCRASQDISNYLNWYQQKPDGTVKLLIYYTSILHSGVPSRFSGSGSGTDYSLTISNLEQEDFATYFCQQGNTLPWTFGCGTKLEI
modifications: pasudotox (PE38 toxin fusion)
notes: not further defined in the text

Legend:
[1] = system: many cell lines; assay: molar activity in vitro against many cell lines (FIG. 3B); format: cell-based; conditions: on average, PV from published activity
Description: FIG. 3: Activity of Duotoxins in vitro.
LMIT-2-DM1 was tested against various cell lines (FIG. 3A). […] Cells like DOHH-2 that are resistant to immunotoxins were sensitive to the LMIT-2-DM1. We have not found a cell line which is resistant to both, the PE and the DM1 in vitro. […] On average 3.6 DM1 molecules per LMIT-3 molecule were coupled. […] The activity of PV varies substantially over a 3-log concentration range. […] The activity is tested by plating the above described cell lines at 20,000 cells per well in a 96-well plate. The immunotoxin or duotoxin is added at indicated concentrations in a three-fold serial dilution, the cells incubated in a humidified incubator for 72 hours. The cells are then collected by centrifugation, stained with 7-AAD and Annexin V and cell death determined by flow cytometry. The concentration at which 50% of the cells are killed (IC50) reflects the activity of a drug against a cell and is determined from the flow cytometry data by non-linear regression analysis.

[2] = system: many cell lines; conditions: published activity of PV; cited from earlier work
[3] = cytotoxicity of immunotoxins and blocking of LMIT-2 by LMIT-3 (FIG. 2B); format: cell-based

Molecule	activity relative to LMIT-2 (less active) [1] [logs]	variation of activity over concentration range [2] [log]	activity of LMIT-2 compared with Moxe [3]
B1	3	3	–
B2	–	–	comparable activity
